# Source: the supplement of paper PMC11246515
# ± gives the standard deviation of the averaged measurements.
# Test: total protein half-life in vivo (active degradation + dilution); higher = more stable protein
# [1] = E. coli NCM3722 delta-clpP delta-lon delta-hslV, growth: N-lim chemostat, doubling time 6 h
# [2] = E. coli NCM3722 delta-clpP, growth: N-lim chemostat, doubling time 6 h
# [3] = E. coli NCM3722 delta-hslV, growth: N-lim chemostat, doubling time 6 h
# [4] = E. coli NCM3722 delta-lon, growth: N-lim chemostat, doubling time 6 h
# [5] = E. coli NCM3722 delta-smpB, growth: N-lim chemostat, doubling time 6 h
# [6] = wild type E. coli NCM3722, growth: C-lim chemostat, doubling time 3 h
# [7] = wild type E. coli NCM3722, growth: C-lim chemostat, doubling time 6 h
# [8] = wild type E. coli NCM3722, growth: C-lim chemostat, doubling time 12 h
# [9] = wild type E. coli NCM3722, growth: N-lim chemostat, doubling time 6 h
# [10] = wild type E. coli NCM3722, growth: P-lim chemostat, doubling time 6 h
# [11] = wild type E. coli NCM3722, growth: P-lim chemostat, doubling time 12 h
# [12] = wild type E. coli NCM3722, growth: N-lim chemostat, doubling time 12 h
Sequence,total protein half-life in vivo [1],total protein half-life in vivo [2],total protein half-life in vivo [3],total protein half-life in vivo [4],total protein half-life in vivo [5],total protein half-life in vivo [6],total protein half-life in vivo [7],total protein half-life in vivo [8],total protein half-life in vivo [9],total protein half-life in vivo [10],total protein half-life in vivo [11],total protein half-life in vivo [12]
MSAGSPKFTVRRIAALSLVSLWLAGCSDTSNPPAPVSSVNGNAPANTNSGMLITPPPKMGTTSTAQQPQIQPVQQPQIQATQQPQIQPVQPVAQQPVQMENGRIVYNRQYGNIPKGSYSGSTYTVKKGDTLFYIAWITGNDFRDLAQRNNIQAPYALNVGQTLQVGNASGTPITGGNAITQADAAEQGVVIKPAQNSTVAVASQPTITYSESSGEQSANKMLPNNKPTATTVTAPVTVPTASTTEPTVSSTSTSTPISTWRWPTEGKVIETFGASEGGNKGIDIAGSKGQAIIATADGRVVYAGNALRGYGNLIIIKHNDDYLSAYAHNDTMLVREQQEVKAGQKIATMGSTGTSSTRLHFEIRYKGKSVNPLRYLPQR [P0ADA3],5.97 ± 0.43 h,6.2 ± 0.18 h,6.44 ± 0.29 h,7.02 ± 0.32 h,6.32 ± 0.11 h,2.926 ± 0.019 h,5.92 ± 0.28 h,12.8 ± 3.5 h,6.01 ± 0.067 h,5.81 ± 0.16 h,12 ± 0.81 h,
MHLLVHPNGSKYWRLQYRYEGKQKMLALGVYPEITLADARVRRDEARKLLANGVDPGDKKKNDKVEQSKARTFKEVAIEWHGTNKKWSEDHAHRVLKSLEDNLFAALGERNIAELKTRDLLAPIKAVEMSGRLEVAARLQQRTTAIMRYAVQSGLIDYNPAQEMAGAVASCNRQHRPALELKRIPELLTKIDSYTGRPLTRWAIELTLLIFIRSSELRFARWSEIDFEASIWTIPPEREPIPGVKHSHRGSKMRTTHLVPLSTQALAILKQIKQFYGAHDLIFIGDHDSHKPMSENTVNSALRVMGYDTKVEVCGHGFRTMACSSLVESGLWSRDAVERQMSHMARNSVRAAYIHKAEHLEERRLMLQWWADFLDVNRERFISPFEYAKINNPLKQ,5.06 ± 0.41 h,4.91 h,,,2.44 h,,5.13 h,13.3 h,,4.82 h,,
MELLVLVWRQYRWPFISVMALSLASAALGIGLIAFINQRLIETADTSLLVLPEFLGLLLLLMAVTLGSQLALTTLGHHFVYRLRSEFIKRILDTHVERIEQLGSASLLAGLTSDVRNITIAFVRLPELVQGIILTIGSAAYLWMLSGKMLLVTAIWMAITIWGGFVLVARVYKHMATLRETEDKLYTDFQTVLEGRKELTLNRERAEYVFNNLYIPDAQEYRHHIIRADTFHLSAVNWSNIMMLGAIGLVFWMANSLGWADTNVAATYSLTLLFLRTPLLSAVGALPTLLTAQVAFNKLNKFALAPFKAEFPRPQAFPNWQTLELRNVTFAYQDNAFSVGPINLTIKRGELLFLIGGNGSGKSTLAMLLTGLYQPQSGEILLDGKPVSGEQPEDYRKLFSAVFTDVWLFDQLLGPEGKPANPQLVEKWLAQLKMAHKLELSNGRIVNLKLSKGQKKRVALLLALAEERDIILLDEWAADQDPHFRREFYQVLLPLMQEMGKTIFAISHDDHYFIHADRLLEMRNGQLSELTGEERDAASRDAVARTA,,5.55 ± 0.68 h,2.75 h,,3.49 ± 2.1 h,3.11 ± 0.83 h,,8.87 h,3.39 h,,6.15 h,6.04 h
MKTRTQQIEELQKEWTQPRWEGITRPYSAEDVVKLRGSVNPECTLAQLGAAKMWRLLHGESKKGYINSLGALTGGQALQQAKAGIEAVYLSGWQVAADANLAASMYPDQSLYPANSVPAVVERINNTFRRADQIQWSAGIEPGDPRYVDYFLPIVADAEAGFGGVLNAFELMKAMIEAGAAAVHFEDQLASVKKCGHMGGKVLVPTQEAIQKLVAARLAADVTGVPTLLVARTDADAADLITSDCDPYDSEFITGERTSEGFFRTHAGIEQAISRGLAYAPYADLVWCETSTPDLELARRFAQAIHAKYPGKLLAYNCSPSFNWQKNLDDKTIASFQQQLSDMGYKFQFITLAGIHSMWFNMFDLANAYAQGEGMKHYVEKVQQPEFAAAKDGYTFVSHQQEVGTGYFDKVTTIIQGGTSSVTALTGSTEESQF [P0A9G6],3.78 ± 0.38 h,3.26 ± 0.34 h,2.33 ± 0.14 h,2.71 ± 0.22 h,2.51 ± 0.07 h,3.19 ± 0.085 h,4.78 ± 0.25 h,7.76 ± 0.96 h,3.01 ± 0.6 h,5.05 ± 0.28 h,11.2 ± 3.2 h,3.15 ± 0.29 h
MKIVIAPDSFKESLSAEKCCQAIKAGFSTLFPDANYICLPIADGGEGTVDAMVAATGGNIVTLEVCGPMGEKVNAFYGLTGDGKTAVIEMAAASGLMLVAPEKRNPLLASSFGTGELIRHALDNDIRHIILGIGGSATVDGGMGMAQALGVRFLDADGQALAANGGNLARVASIEMDECDPRLANCHIEVACDVDNPLVGARGAAAVFGPQKGATPEMVEELEQGLQNYARVLQQQTEINVCQMAGGGAAGGMGIAAAVFLNADIKPGIEIVLNAVNLAQAVQGAALVITGEGRIDSQTAGGKAPLGVASVAKQFNVPVIGIAGVLGDGVEVVHQYGIDAVFSILPRLAPLAEVLASGETNLFNSARNIACAIKIGQGIKN,4.41 ± 0.66 h,4.58 ± 0.6 h,4.47 ± 0.077 h,4.62 ± 0.21 h,4.3 ± 0.45 h,3.05 ± 0.13 h,4.82 ± 0.53 h,10.4 ± 1.2 h,5.7 ± 1.2 h,5.05 ± 0.15 h,9.23 ± 0.27 h,8.201 ± 0.034 h
MSSYANHQALAGLTLGKSTDYRDTYDASLLQGVPRSLNRDPLGLKADNLPFHGTDIWTLYELSWLNAKGLPQVAVGHVELDYTSVNLIESKSFKLYLNSFNQTRFNNWDEVRQTLERDLSTCAQGKISVALYRLDELEGQPIGHFNGTCIDDQDITIDNYEFTTDYLENATCGEKVVEETLVSHLLKSNCLITHQPDWGSLQIQYRGRQIDREKLLRYLVSFRHHNEFHEQCVERIFNDLLRFCQPEKLSVYARYTRRGGLDINPWRSNSDFVPSTTRLVRQ,5.36 ± 0.64 h,5.85 ± 1.8 h,5 ± 0.28 h,4.54 ± 0.56 h,4.09 ± 0.3 h,2.81 ± 0.26 h,5.542 ± 0.011 h,8.79 ± 1.1 h,4.41 ± 0.24 h,5.622 ± 0.049 h,10.92 ± 0.053 h,7.06 ± 0.16 h
